Results: article PMC3720550

Tests used:
Experiment in all cases: UV-vis
Details in all cases: not stated (1 mM each of sodium phosphate, sodium citrate and sodium borate; 0.1 mM EDTA; no added salt mentioned), Polybuffer: 1 mM each of sodium phosphate, with 0.1 mM EDTA. Starting pH 9.3, titrated with 25 mM HCl., Reduced (DTT-treated, desalted) active-site dithiol form, folded, 10-25 µM protein, the oxidised (diamide) protein served as reference
Cys15 = Cys15 (UniProt position 15, PDCPPCVIVKE)
Cys12 [1] = target: Cys12 (UniProt position 12, YTQPDCPPCVI)
Cys12 [2] = target: Cys12 (UniProt position 12, YAQPDCPPCVI)

## Thioredoxin BC3987 (NrdH/Cp9-like small thioredoxin, C-P-P-C active site) (Bacillus cereus ATCC 14579)
Cys15
  pKa: 5.1
Cys12 [1]
  pKa: 7.2

## Thioredoxin BC3987 T8A mutant (Bacillus cereus ATCC 14579; T8A)
Cys12 [2]
  pKa: 7.2
